Reference: publication PMC6018948

How the values were obtained:
[1] = target: T1, ARR1 (UniProt Q940D0 1-690); assay: competition
T1 sequence: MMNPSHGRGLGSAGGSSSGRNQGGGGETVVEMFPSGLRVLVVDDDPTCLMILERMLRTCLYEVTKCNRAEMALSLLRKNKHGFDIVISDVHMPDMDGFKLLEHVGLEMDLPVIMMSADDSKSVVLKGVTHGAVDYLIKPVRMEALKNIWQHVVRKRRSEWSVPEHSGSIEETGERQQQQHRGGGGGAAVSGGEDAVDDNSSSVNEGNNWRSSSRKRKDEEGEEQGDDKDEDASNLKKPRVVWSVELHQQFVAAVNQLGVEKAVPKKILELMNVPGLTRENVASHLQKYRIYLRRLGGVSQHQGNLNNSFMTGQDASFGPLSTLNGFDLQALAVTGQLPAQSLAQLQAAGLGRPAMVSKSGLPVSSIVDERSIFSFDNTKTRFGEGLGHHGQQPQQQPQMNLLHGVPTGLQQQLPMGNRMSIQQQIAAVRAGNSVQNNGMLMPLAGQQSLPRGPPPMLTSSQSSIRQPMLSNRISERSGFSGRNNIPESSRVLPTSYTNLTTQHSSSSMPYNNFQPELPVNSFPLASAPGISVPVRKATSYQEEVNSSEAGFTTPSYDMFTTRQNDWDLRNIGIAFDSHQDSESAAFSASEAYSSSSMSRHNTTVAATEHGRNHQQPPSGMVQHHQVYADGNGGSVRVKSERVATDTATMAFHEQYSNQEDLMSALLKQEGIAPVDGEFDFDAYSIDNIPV

[2] = target: T2, ARR10 (UniProt O49397 1-552); assay: competition
T2 sequence: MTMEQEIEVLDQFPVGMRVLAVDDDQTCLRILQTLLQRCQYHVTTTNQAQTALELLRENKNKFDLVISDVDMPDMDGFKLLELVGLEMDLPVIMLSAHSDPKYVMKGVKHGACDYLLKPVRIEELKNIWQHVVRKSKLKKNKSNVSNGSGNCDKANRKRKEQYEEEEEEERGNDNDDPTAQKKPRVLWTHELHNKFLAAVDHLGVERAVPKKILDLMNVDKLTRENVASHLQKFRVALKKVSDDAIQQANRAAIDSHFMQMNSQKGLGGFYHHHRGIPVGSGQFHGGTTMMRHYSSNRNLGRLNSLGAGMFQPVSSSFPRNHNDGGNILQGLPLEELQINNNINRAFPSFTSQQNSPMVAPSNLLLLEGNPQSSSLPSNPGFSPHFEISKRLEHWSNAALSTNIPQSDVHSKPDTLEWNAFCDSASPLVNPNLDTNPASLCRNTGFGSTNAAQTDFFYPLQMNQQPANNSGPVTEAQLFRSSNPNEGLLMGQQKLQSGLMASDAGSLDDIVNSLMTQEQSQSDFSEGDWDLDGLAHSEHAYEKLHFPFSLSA

B1: AG mutated competitor (dsDNA)
DNA 1: TTTAAAGCAATGGTTACAATTTTAATACTATCAAATGTCTATTGCTTTTA
DNA 2: TAAAAGCAATAGACATTTGATAGTATTAAAATTGTAACCATTGCTTTAAA
binding result [1]: no binding
binding result [2]: no binding
